± gives the standard error. Fewer inactive variants are shown than the library holds.
B1: glmS ribozyme (parent)
chain: AUAAAAGCGCCAGAACUACAGAAAUGUAGUUGACGAGGAGGAGGUUUAUCGAAUUUUCGGCGGAUGCCUCCAAA

What was measured:
Settings in all cases: with glucosamine-6-phosphate
glucosamine-6-phosphate [1] = variants of: B1; assay: self-cleavage kobs at 640 uM GlcN6P; higher = faster cleavage; RNA array
Procedure, shortened: (§1)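 Tiles of sequenced MiSeq chips were imaged over ~14 h at 37 °C. On them, barcoded ribozyme variants had been transcribed in situ by E. coli RNA polymerase and were tracked via a hybridised Cy3 probe while glucosamine-6-phosphate (40 μM to 10 mM) in HEPES/KCl/Mg(OAc)2 buffer flowed in. Per-tile medians, normalised to baseline and to non-cleaving reference variants, were fit to one- or two-exponential decays for kobs, and weighted Michaelis–Menten fits gave kcat and KM.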

glucosamine-6-phosphate [2] = variants of: B1; assay: self-cleavage kobs at 2500 uM GlcN6P; higher = faster cleavage; RNA array
Procedure, shortened: as §1

glucosamine-6-phosphate [3] = variants of: B1; assay: self-cleavage kobs at 10000 uM GlcN6P; higher = faster cleavage; RNA array
Procedure, shortened: as §1

Row | Variant | self-cleavage kobs at 640 uM GlcN6P (glucosamine-6-phosphate [1]) | self-cleavage kobs at 2500 uM GlcN6P (glucosamine-6-phosphate [2]) | self-cleavage kobs at 10000 uM GlcN6P (glucosamine-6-phosphate [3])
1 | AUAAAAUCGCCAGAACUACAGAAAUGUAGUUGACGAGGAGGAGGUUGAUCGAUUUUUCGGCGGAUGCCUCCAAA | < 1e-05 s⁻¹ | < 1e-05 s⁻¹ | –
2 | AUAAAAGCGCGAGAACUACAGAAAUGUAGUAGACGAGGAGGAGGUUCAUCGAAUUUUCGGGGGAUGCCUCCAAA | < 1e-05 s⁻¹ | < 1e-05 s⁻¹ | –
3 | AUAAAAGCGCCAGAACUACAGAAAUGUAGUUGACGAGGAGGAAGUUUAUCGAAUUUUCGGCGGUUGACUCCAAA | < 1e-05 s⁻¹ | – | –
4 | AUAAAAGCGCCAGAACUACAGAAAUGUACUGGACGUGGAGGAGGUUUAUCGAAUUUUCGGCGGAUGCCUCCAAA | < 1e-05 s⁻¹ | – | –
5 | AUAAAAGUGCCAGCACUACAGAAAUGUAGUUAACGAGGAGGAGGUUUAUCGAAUUUUCGGCGGAUGCCUCCAAA | < 1e-05 s⁻¹ | < 1e-05 s⁻¹ | –
6 | AUAAAAGCGCCAGAACUACAGAAAUGUAGUUGACGUGGAGGAGGUUUAUCGAAUCUUCGUCGGAUGCCUCCAAA | < 1e-05 s⁻¹ | – | –
7 | AUAAAAGCGCCAGAACUACAGAAAUGUAGUUGACGAGCAGGAGGAUUAUCGAAUUUUCGGCGGAUGCCUGCAAA | < 1e-05 s⁻¹ | – | < 1e-05 s⁻¹
8 | AUAAAAACGCCAGAACUACAGAAAUGUAGUUGACGAGGUGGAGGUUUAACGAAUUUUCGGCGGAUGCCUCCAAA | < 1e-05 s⁻¹ | – | –
9 | AUAAAAGCGCCAGAACUACAGAAAUGUAGUUGACGCAGAGGAGGUUUAUCGAAUUUUCGGCGGGUGCCUCCAAA | < 1e-05 s⁻¹ | – | –
10 | AUAAAAGCGCGAGAACUACAGAAAUGUAGUUGACGAGGAGGAGGUUUAUCGAAUUUUCGGCGGAUGCCUGCAAA | 9.08e-05 ± 1.6e-05 s⁻¹ | 5.33e-05 ± 1.4e-05 s⁻¹ | 2.25e-05 ± 9.6e-06 s⁻¹
11 | AUAAAAGCGCCAGAACUACAGAAAUGUAGUUGACGAGGAAGAGGCUUAUAGAAUUUUCGACGGAUGACUCCAAA | < 1e-05 s⁻¹ | < 1e-05 s⁻¹ | –
12 | AUAAAAGCGCCAGAACUACAGAAAUGUAGUUGACGAGGAGGAGGUUUAUCGAAUGUUCGGCGGAUGAGUCCAAA | 8.64e-05 ± 2.7e-05 s⁻¹ | 7.14e-05 ± 1.6e-05 s⁻¹ | –
13 | AUAAAAGCGCCAGAACUACAGAAAUGUAGUUGAGGAGGCGGAGGUAUAUCGAAUUUUCGGCGGAUGCCUCCAAA | < 1e-05 s⁻¹ | – | –
14 | AUAAAUGCGCCAGAACUACAGAAAUGUAGUAGACUAGGAGGUGGUUUAUCGAAUUUUCGGCUGAUGCCUCCAAA | < 1e-05 s⁻¹ | < 1e-05 s⁻¹ | –
15 | AUAAAUGCGCCAGAACUACAGAAAUGUAGUUCACGAGGAGGAGGUUUAUCGAAUUUUCGGCGGAUGGCUCCAAA | < 1e-05 s⁻¹ | < 1e-05 s⁻¹ | –
16 | AUAAAAGCGCCAGAUCUACAGAAAUGUAGUUGACGGGGAGUAGGUUAAUCGAAUUUUCGGCGGAUGCCUCCAAA | < 1e-05 s⁻¹ | – | –
17 | AUAAAAGCGCCAUAAAUACAGAAAUGUAGUUGACGAGGGUGAGGUUUAUCGAAUUUUCGGCGGAUGCGUCCAAA | < 1e-05 s⁻¹ | < 1e-05 s⁻¹ | –
18 | AUAAAAGCGUCAGUACUACAGAAAUGUAGUUAACGAGGAGGCGGUUUAUCGAAUUUUCGGCGGAUGCCUCCAAA | < 1e-05 s⁻¹ | – | –
19 | AUAAAAGCGCCAGGACUACAGAAAUGUAGUUGACGAGGAGGACGUUUAUCUAAUUUUCGGCGGGUGCCUCCAAA | < 1e-05 s⁻¹ | – | –
20 | AUAAAAGCGCCAGAACUACAGAAAUGUAGUUGACGAGGAGGAGGCUUAUCGGAUUUUCGGCGGAUGCCUUCAAA | 4.7e-05 ± 1.6e-05 s⁻¹ | 6.92e-05 ± 1.3e-05 s⁻¹ | –
21 | AUAAAAGCGCCAGAACUACAGAAAUGUAGUUGACGAGUAGGAGGUUUAUCGAAUUUUCGGCGGUUGCCUGCAAA | 8.06e-05 ± 3.4e-05 s⁻¹ | – | –
22 | AUAAAAGCGCCAGAACUACAGAAAUGUAGUUGACGAGGACGAGGUUUAUUGAAUUUUCGCCGGAUGCCUCCAAA | < 1e-05 s⁻¹ | – | < 1e-05 s⁻¹
23 | AUAAAAGCGCCAUAAGUACAGAAAUGUAAUUGACGAGGGGGAGGUUUAUCGAAUUUUCGGCGGAUGCCUCCAAA | 0.000103 ± 3.7e-05 s⁻¹ | 0.000286 ± 7.5e-05 s⁻¹ | –
